T1: recombinant human β-catenin, full-length (human, UniProt P35222 1-781, limits assumed)
T1 construct: Purified from E. coli; also called full-length β-catenin
T1 sequence (looked up): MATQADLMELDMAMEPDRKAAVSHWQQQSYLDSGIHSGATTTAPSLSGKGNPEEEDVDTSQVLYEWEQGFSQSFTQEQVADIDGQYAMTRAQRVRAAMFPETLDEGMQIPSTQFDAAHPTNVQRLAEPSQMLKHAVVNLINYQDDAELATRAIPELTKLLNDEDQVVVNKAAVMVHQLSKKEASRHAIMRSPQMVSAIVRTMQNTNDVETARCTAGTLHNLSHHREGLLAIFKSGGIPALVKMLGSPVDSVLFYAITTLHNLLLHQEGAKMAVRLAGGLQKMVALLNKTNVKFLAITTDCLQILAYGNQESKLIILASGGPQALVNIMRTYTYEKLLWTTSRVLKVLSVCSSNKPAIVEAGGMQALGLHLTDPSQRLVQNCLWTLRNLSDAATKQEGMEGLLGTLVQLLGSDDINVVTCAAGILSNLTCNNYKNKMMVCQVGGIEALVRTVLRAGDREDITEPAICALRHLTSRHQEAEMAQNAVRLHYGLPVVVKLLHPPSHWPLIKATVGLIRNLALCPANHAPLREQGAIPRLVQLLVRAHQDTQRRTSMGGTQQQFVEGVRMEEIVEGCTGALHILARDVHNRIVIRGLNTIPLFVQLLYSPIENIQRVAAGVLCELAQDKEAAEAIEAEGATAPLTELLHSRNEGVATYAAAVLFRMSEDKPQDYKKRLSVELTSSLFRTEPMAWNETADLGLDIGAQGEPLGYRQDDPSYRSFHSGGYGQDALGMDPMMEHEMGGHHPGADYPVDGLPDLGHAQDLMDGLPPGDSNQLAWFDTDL

T2: EPDRKAAVSHWQQQS
T2 construct: unphosphorylated counterpart of 1.m32; also called β-catenin peptide aa 15-29 without phosphorylated Ser23; phos Ser23 -
T2 peptide: EPDRKAAVSHWQQQS

T3: β-catenin peptide 5-19 (human, UniProt P35222)
T3 construct: synthetic 15-mer; additional N-terminal cysteine for coupling; also called Start 5 End 19
T3 peptide (looked up): ADLMELDMAMEPDRK

T4: β-catenin peptide 37-51 (human, UniProt P35222)
T4 construct: synthetic 15-mer; additional N-terminal cysteine for coupling; also called Start 37 End 51
T4 peptide (looked up): SGATTTAPSLSGKGN

T5: MEPDRKAAVSHWQ
T5 construct: C-terminal truncation; also called β-catenin aa 14-26
T5 peptide: MEPDRKAAVSHWQ

T6: RKAAVSHWQQ
T6 construct: N-terminal truncation; also called β-catenin aa 18-27
T6 peptide: RKAAVSHWQQ

T7: BC2T K4E (human)
T7 construct: position 4 library, row E
T7 peptide: Ac-PDREAAVSHWQQ-NH2


Assays:
[1] = biological target: T1, recombinant human β-catenin, full-length; assay: not stated at this place (description)
Procedure: The dissociation was induced by two injections of regeneration solution of 15 μl each at the identical flow rates.

[2] = biological target: T8, mCherry-Vimentin with C-terminal BC2 tag (mCherry-VIMBC2T) (human, UniProt P08670 1-466); assay: immunoprecipitation from HEK293T lysate, immunoblot with anti-vimentin
T8 construct: Expressed in HEK293T or HeLa cells; also called mCherry-VimentinBC2T; not shown: mCherry fluorescent protein
T8 sequence (P08670 other isoform, or with tags, fused parts or gaps): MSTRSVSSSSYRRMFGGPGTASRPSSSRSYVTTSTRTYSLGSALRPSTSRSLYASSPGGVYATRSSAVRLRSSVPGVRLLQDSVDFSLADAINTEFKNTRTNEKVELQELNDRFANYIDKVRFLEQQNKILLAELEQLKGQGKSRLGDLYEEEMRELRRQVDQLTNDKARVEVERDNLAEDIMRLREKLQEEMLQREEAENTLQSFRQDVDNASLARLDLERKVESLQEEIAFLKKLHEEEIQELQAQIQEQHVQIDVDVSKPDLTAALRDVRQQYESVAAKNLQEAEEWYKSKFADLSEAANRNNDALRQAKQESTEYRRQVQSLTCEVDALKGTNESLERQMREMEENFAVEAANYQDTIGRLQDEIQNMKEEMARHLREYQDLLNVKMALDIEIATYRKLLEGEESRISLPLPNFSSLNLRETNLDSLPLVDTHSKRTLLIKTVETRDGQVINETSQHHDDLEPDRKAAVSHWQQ
Procedure: HEK293T cells transiently expressing eGFP, eGFPBC2T or BC2TeGFP, eGFP-PCNA, eGFP-PCNABC2T, mCherry-Vimentin, mCherry-VimentinBC2T were washed and harvested in phosphate buffered saline (PBS), snap-frozen in liquid nitrogen and stored at −20° C. Cell pellets were homogenized in 200 μl lysis buffer (10 mM Tris/Cl pH 7.5, 150 mM NaCl, 0.5% NP40, 1 μg DNaseI, 2 mM MgCl₂, 2 mM PMSF, 1× protease inhibitor mix M (Serva) by repeated pipetting for 40 min on ice. After a centrifugation step (10 min at 18.000×g) the protein concentration of each lysate was determined using a Pierce BCA Protein Assay Kit (Thermo Fisher Scientific) according to manufacturer's protocol and the protein solutions were adjusted with dilution buffer (10 mM Tris/Cl pH 7.5, 150 mM NaCl, 2 mM PMSF) to a concentration of 1 mg/ml. 2% of the supernatant were added to SDS-containing sample buffer (referred to as input). […] After a centrifugation step (2 min, 2500×g) the precleared supernatant was transferred to a new cup. 2% were added to SDS-containing sample buffer (referred to as non-bound). […] Samples were analyzed by SDS-PAGE followed by immunoblotting. Immunoblots were probed with indicated antibodies.

EPDRKAAVSHWQQQS = biological target: T2, EPDRKAAVSHWQQQS; assay: peptide aa 15-29 on microspheres, biotinylated BC2-Nb, streptavidin-PE
Text: (§1) As negative controls, microspheres comprising Ovalbumin and the Myc-peptide ([…]) covalently coupled to OVA-microspheres were used. […] Evaluation of the PE-signals were done in a Flexmap 3D (Luminex).

β-catenin peptide 5-19 = biological target: T3, β-catenin peptide 5-19; assay: pepscan: 15-mer peptide on OVA-microspheres, biotinylated BC2-Nb, streptavidin-PE
Text: as §1

β-catenin peptide 37-51 = biological target: T4, β-catenin peptide 37-51; assay: as above
Text: as §1

MEPDRKAAVSHWQ = biological target: T5, MEPDRKAAVSHWQ; assay: truncated peptides of β-catenin aa 14-27 on OVA-microspheres, biotinylated BC2-Nb, streptavidin-PE
Text: as §1

RKAAVSHWQQ = biological target: T6, RKAAVSHWQQ; assay: as above
Text: as §1

BC2T K4E = biological target: T7, BC2T K4E; assay: library pulldown, LC-MS of supernatant; ratio vs GFP-Nb control (0=captured, 1=not captured)
Method in brief: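 Unbound peptide left in supernatant after 1 h pulldown in PBS/0.01% CHAPS measured by reversed-phase LC-MS (8–30% eluent B gradient, 20 min).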

Row | Binder | Kd [1] [nM] | binding result [2] | binding result (EPDRKAAVSHWQQQS) | binding result (β-catenin peptide 5-19) | binding result (β-catenin peptide 37-51) | binding result (MEPDRKAAVSHWQ) | binding result (RKAAVSHWQQ) | ratio (BC2T K4E)
1 | BC2 nanobody (VHH, Alpaca VHH, 122 aa; also called BC2-Nb; BC2 nanotrap (BC2-Nb immobilized on agarose/Sepharose beads); not shown: C-terminal 6xHis-tag added by the pHEN6 vector) VHH: QVQLVESGGGLVQPGGSLTLSCTASGFTLDHYDIGWFRQAPGKEREGVSCINNSDDDTYYADSVKGRFTIFMDNAKDTVYLQMNSLKPEDTAIYYCAEARGCKRGRYEYDFWGQGTQVTVSS | 3.7 | binds | binds | no binding (tested: 1 µg/ml BC2-Nb) | no binding (tested: 1 µg/ml BC2-Nb) | binds | binds | –
2 | BC2 nanobody (BC2-Nb) (VHH, immobilised on agarose/sepharose beads in this assay; also called BC2 nanotrap (immobilised form); not shown: C-terminal 6xHis-tag added by pHEN6 vector) VHH: QVQLVESGGGLVQPGGSLTLSCTASGFTLDHYDIGWFRQAPGKEREGVSCINNSDDDTYYADSVKGRFTIFMDNAKDTVYLQMNSLKPEDTAIYYCAEARGCKRGRYEYDFWGQGTQVTVSS | – | – | – | – | – | – | – | 0.5

Source: patent publication US20170137467A1 (CHROMOTEK, published 2017)
